Laboratory results as given in a protein production outcome set (Wang et al. 2014).

Assay: label from the status in PepcDB records
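Note: failed if final PepcDB status was selected cloned or expressed and not failed if soluble or beyond.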

Row | Sequence | protein production
1 | MFNQLVKVIPNLFTIGNLLCGVFSITLNMSEYLGAASILIFFSAVLDFLDGRIARKLKVNSEFGVELDSLADIVSFGVAPALLFHTIATPSILTSLAFILFPTMGALRLAKFSIKPTIGYFKGLPIPAAGLSLAGMALFSYSNAWITLILALLMVSPIRFKKF | not failed
2 | MKEDPRIIKTLSKLQKAFVMLLKTYDAGDINVRQISDEAGVTRGAFYSHFSDKKEFVNFTINELVGSLFNSSLKDSVGFVDEVNHKNAHGTNVLSVSNFFDKVAADYQTYTIVLDTEKLPQFTEVLKERLNSEIKTFAEYYGKKVKHDGFPIEVLSSYYVNGLIGMIRMWLDEGMVYTSHYMANAAKKILGTKIQIDSQNIDLSDFFVDLEHHHHHH | not failed
3 | MRLTIERRKASLYLRGNLPPKLPGGEWKQQRMPLGLDATPLGVKQAEAKAHQVGLELQMDRFRWQDHVELPIDASVMSGLVHLAEERYFSERDRTAKTLSTWQRVYVAHYRQIGLDKPFSLELIHRYLSSKRGFPNALQKAIVACRFLCAVANQPLDARPWQGVATRREVVPRELPTQQQIVDWFDHLKNMQLHHQPEFRAGWIWVYAAIATYGLRPHEAWYLDLDSLRKSKGKRVWLKDGKTGPRWVYPCPPQWVQRFDLCHGGPPPINVRNNQELGTRAGQWAKANGVPPLYGLRHSYAVRLIEYEFPVTVAAKMMGHSPQVHTETYHRWLGDREVQSYAEDLLR | failed
4 | MDRTLTHQPQEYAVSVSVGEVKLKGNLVIPNGATGIVLFAHGSGSSRYSPRNRYVAEVLQQAGLATLLIDLLTQEEEEIDLRTRHLRFDIGLLASRLVGATDWLTHNPDTQHLKVGYFGASTGGGAALVAAAERPETVQAVVSRGGRPDLAPSALPHVKAPTLLIVGGYDLPVIAMNEDALEQLQTSKRLVIIPRASHLFEEPGALTAVAQLASEWFMHYLR | not failed
5 | MKKNNAISNFYRILSIVLEIFIVAFSIYLAYMVRFRFRIIPPKFNYAPFERSLPFTIIVYMVFMYIFGLVDILKKSLWEIVYSIFLTVIMLFVFTMAITFSLRGFSYPRLVILLSSVFQFFLLSIFKCLWWKLERKIYGTKNTVIIGQNGESIAKKILLKHDDLYSISSIIKNYTEDKKSIVEKADIVLISDDLDENTKSTIIKESMYMNKNIFIVPSVTDIAFYKANFEQIDDVPILKVDTLELSAEQKTVKRLLDIVVAIIATVVFSPFLIILPIIIKCTDGGSPFYFQERVTNGGKKFKLIKFRSMIVNAEKHSGPVLVTENDSRITKIGKIMRATRLDEIPQLFNILKGDMSIVGPRPERPFYVEKFEKEIPDYKYRTFVKAGLTGLAQVLGKYNTTPEDKIKYDIMYIKNYSILLDIKLIIQTVKIMFMKESTEAVKDDVELEEILKKKNIKIKIY | failed
6 | GDDEIAMLGRYFNQMTRQLKGQRDTLLENTHQIERRRRLFDSVLSSVTSGVVGLDSQGKVTFVNRSAERLLDWSGDEQSLDLAVAVPEFVSLFESLVAAGQETVQAEIKVTRKGQLENLLVRMSTRRGEDDTLEGYVIAFDD | failed
7 | MKYIIIGLGNYGHVLAEELSTLGHEVIGADLDEGRVDSIKDKIATAFVIDATDEQSLSVLPLNSVDMVIVAIGENFGASIRVVAMLKQKQVKHIYARAIDGVHKAVLEAFGLEKILTPEEDAARSLVQLLDFGTKMETFRVDSEYYVVKFNVPEKFVGYFVNELNLDEEFNLKLIGLKRSNTIKNCLGISLVEHKVVNELPEDAKIRPDDVLVCYGKYSDFQKLWKALLEHHHHHH | not failed
8 | MILSMSIFGSIGFFSVQTGLPSFELVFVRCICATIFLALCWLVTGQYKSEQWNKKEIMQILACGVFLVFNWVFLFKAFEVMSITIAISVYHLAPIIVLMIGSIVFKERLTMFAVLSIVICFIGTVLVAGVDGSLSLEKLMSSGMVWALLAALFYAFTTLLGKGIQHTSAYAMTFLQTFLGIFLLLPFVDFGKFQGLTEMNWMMITATGLIHTGFVYYLFFDSLRDLSTRMISVLVFLDPAVAILLDTVFTGFRPTSMQVVGIVLIFVGMAFTFRKTKDEEIAVKEKLYS | failed
9 | MWKCHRYMMSSHLHRQLDLINMEIKTIASGSKGNAYVISSGRSQLLIECGVNFDKIRKALNFDLSAVEACLISHEHGDHVAGVKKMLRTSSIKIYASEGTLSALNVPDSRQFILKEKDAQNIGEWIILPFQTEHDAKEPLGFMIQRHNERLLFITDSYFVRYKFKNINYLMIECNYSADILEENVINKVIHQVQKKRVLQSHFSLENVKEFLNANDLSQLREIHLLHISERNGDPERFKKEIQAMTGVPVYV | failed
10 | MIIVMSRRAAEADIAGVVAFIRSRGLREHISHGDERTVIGAIGDDRVLSVREVQTLPEVEKAVRILDTWKTVSRENRAEDSRVAAKGVAFGGGETVRIAAEPSVWSNADAVFLDPFFTSANLYDTLSADEGRGRCRRLAEQAASAHGAGKPVLVRVRNVRHVEAALNAGADILYLGGGLMSDLAVLNEAGSLNIPLVLCKDKHHSAEDWLNAAEYVVSRGNRHLILGESGVLGHTKGHPYRLDVESIVKVRQISHLPVIANITGLWSRDMPQEILYGLAKAAGACGIVGTCFEKAGG | failed
11 | SLWQPQTGDIIFQISRSSQSKAIQLATHSDYSHTGMLVMRNKKPYVFEAVGPVKYTPLKQWIAHGEKGKYVVRRVEGGLSVEQQQKLAQTAKRYLGKPYDFSFSWSDDRQYCSEVVWKVYQNALGMRVGEQQKLKEFDLSNPLVQAKLKERYGKNIPLEETVVSPQAVFDAPQLTTVAKEWPLFSW | not failed
12 | MAERAMSVTPYWELTFDADGDVDGRERDRLLAQVAQRKVHDLVVFAHGWNNERSGATRLYSRFFQPVPALAPRARLGYVGVVWPSMIFPDEPIPDFPASVPAEVTAVARPALAKGARQALVEVFPDRATLVEQIARLLERHPDEEASLETFGQLVRLLVEARPQDPQDACAADTLATGGPVSGPEMLSGDTALVCRDFARALDRVASLHGTSAASGAVDFSFTPAGLWDGAHELLRQATYYAMKRRAGTVGERGLGRVLGRLAQAAPDVRVHLVGHSFGGRLVSFALRGLPAGVRTVKSVTLLQGAFSHYAFAARLPHDTHASGALHGLQSRIDGPLVCCYSHFDSALGTMYPLASRMAGDARSAAGELGADFDIGRTLGPRWGAMGHDGVQAVDGTRAFTLAEALRAELPASGCVNVDAAAVVKRGGPPTGAHSDIVHRELAQVVLAAGRIR | failed
13 | MEQRRVTDFFARRRPGPPRIAPPKLACRTPSPARPALRAPASATSGSRKRARPPAAPGRDQARPPARRRLRLSVDEVSSPSTPEAPDIPACPSPGQKIKKSTPAAGQPPHLTSAQDQDTISELASCLQRARELGARVRALKASAQDAGESCTPEAEGRPEEPCGEKAPAYQRFHALAQPGLPGLVLPYKYQVLAEMFRSMDTIVGMLHNRSETPTFAKVQRGVQDMMRRRFEERNVGQIKTVYPASYRFRQERSVPTFKDGTRRSDYQLTIEPLLEQEADGAAPQLTASRLLQRRQIFSQKLVEHVKEHHKAFLASLSPAMVVPEDQLTRWHPRFNVDEVPDIEPAALPQPPATEKLTTAQEVLARARNLISPRMEKALSQLALRSAAPSSPGSPRPALPATPPATPPAASPSALKGVSQDLLERIRAKEAQKQLAQMTRCPEQEQRLQRLERLPELARVLRSVFVSERKPALSMEVACARMVGSCCTIMSPGEMEKHLLLLSELLPDWLSLHRIRTDTYVKLDKAADLAHITARLAHQTRAEEGL | failed
14 | MLILLPDFIGHPSCFRGLLARLGATDCRLVDYHRLDAYASIEALASQVLDGLAEEPDWLIGYSFGGLVGYEMARQLPASRLLMIDSHLPWPALRRMPPSEQYQRWLSAEMREWIALMSELGELREEVLLRNVELFGRWQPRHRLARASWVRCRDDAGRDPAAERWCDLIERLDTFPCERPHHLALQDPAVIDFIVHTVSK | failed
15 | MSIVSISYNQEEYIREALDGFAAQRTEFPVEVIIADDASTDATPRIIGEYAARYPQLFRPILRQTNIGVHANFKDVLSAARGEYLALCEGDDYWTDPLKLSKQVKYLDRHPETTVCFHPVRVIYEDGAKDSEFPPLSWRRDLSVDALLARNFIQTNSVVYRRQPSYDDIPANVMPIDWYLHVRHAVGGEIAMLPETMAVYRRHAHGIWHSAYTDRRKFWETRGHGMAATLEAMLDLVHGHREREAIVGEVSAWVLREIGKTPGRQGRALLLKSIADHPRMTMLSLQHRWAQTPWRRFKRRLSTELSSLAALAYATRRRALEGRDGGYRETTSPPTGRGRNVRGSHA | failed
16 | SIQGKVALIAGGAKNLGGLIARDLAAHGARAIAIHYNSPASKADADATVAALQAAGAQAVALQGDLTTAAAVEKLYADALAAVGRPDIAINTVGKVLKKPFSEISEAEYDEMAAVNAKSAFFFLKEAGRHVNDHGKIVTLVTSLLGAFTPFYSAYAGTKAPVEHYTRAAAKEFGARGISVTAVGPGPMDTPFFYGQESPEAVAYHQSAAALSPHSPTGLTHIEDVVPFIRHLVSDGWWITGQTLLINGGY | failed
17 | KVKIPYQKYKLDNGLTVILAPEGSDPLVHVDVTYHVGSAREEIGKSGFAHFFEHMMFQGSENVGDQEHFKIITEAGGTLNGTTNRDRTNYFETVPANQLEKMLWLESDRMGFLLDAVSQRKFEIQRSTVKNERAQRYDNRPYGLIWERMSEALYPEGHPYSWQTIGYVEDLERVDVNDLKAFFLRWYGPNNATITIGGDLDVEQTLAWVNKYFGSIPRGP | failed
18 | NTKQLRFEDVVNQSSPKNCTVYCGGIASGLTDQLMRQTFSPFGQIMEIRVFPEKGYSFVRFSTHESAAHAIVSVNGTTIEGHVVKCYWGKESPDMT | not failed
19 | MRILLVGAGGFVGRHLLPALLAAGHELLLTARRPPVDAPAGVRWLALDLERLAERPDSFAWPAGVDLLINAAGTMSLDEASMARVQDSGARTLFDLAAAHGAKVLQISALGAGAHPDVAFLASKAAADRHLLELGIPALVLRPSLLLGPGGASSAWLERLSPLPLIPLLDNRARLQPLHVEDLVGAVLALLRCWPERAQVIPLVGPQALTQGELLDELRRAQGWPRGRYVVPPAALLDALGGLGRRAGWRTLSPSMLKLVRHDNLADPALLDEACGYRCAPLASRLLGWPQAARSLAALMRPLMLAALVLIWLGTLVACLGPGYGWGLRILGEAGIHGWPASLAVIAGALLDGALGVGLLLRRWRRRALLAQFWLMLGYSLAISLILPHYWYDPYMAVGKNIVLMVATLWLLGDEPRTREARG | failed
20 | MGHKQSVDSRGKGRKVPGSSSMVQKHRVESSGGAIISGPSLFDNLPEDCISNIISFTSPRDACVAASVSKTFESAVNSDSVWDKFLPSDYSSLVPPSRVFSSKKELYFAICDNPVLVEDGGKSFWLEKENGKKCFMLSPKKSMWITWVSTPQYWRWISIPEARFEEVPELLNVCWFEVRGGMNTKELSPGTRYSAYIVFKTKNGCPNLGDVPVEATVGLVGQESSQRHIYFVGPSDQRRDRETRDVTRPTKRKDGWMEAELGQFFNESGCDVVDTSILEIKTPYWKRGLIIQGIEFRPTKSLFYI | not failed
21 | MPMPMACWCRRSRCRWMAPADRSDRKPEGDAVTLKRWLSGGVLMVASLVATTHAAELPAGMQQFDVQMERVRKQFDVPGIAVAIVKDGQVVLERGYGVRETGKPAPVQADTLFAIASNTKAFTAASLSILADEGKLSLEDKVIDHLPWFRMSDPYVGGEMRIRDLLAHRSGLSLGAGDLLFWPTTSYTTEEVVQRLAKVPLKGGFRDRYAYDNILYAVAQKVIEQVSGQSYEAFLQQRIFAPVGMRGTRFNADHLQAGDHAAVGHAKYDFTELRTVAPLTWSNNSGAGGIYSSAHDMALWMNVQLAGGILPDGKPLFSAKRQHEMWSMITPIPIGEVQLPEFAAARPNFAGYGEGWSLSDYRGHRMVWHTGGWPGMVSRLTLLPDQKLGVVVLTNQEVGAAFNAVTFQVLDAFLRVPPTDWTAAYAKLVEKADSDADASWKKHQDARAARSTPSLPLRSYAATYRDPWYGDVVIVQDGKRLRLQFAKTAQLVGTLEHWQHDSFIVRWDDRSLNADAFVNFLLTPDGAVREMRMEPISPLTDFSFDFQDLVLTPVPTETAAGK | failed
